Each block holds one molecule with its values, some of them ahead of it.
Columns and labels:
glucagon = glucagon (Homo sapiens, UniProt P01275); assay: Microscale thermophoresis, binding to glucagon; conditions: read-out: Kd, binding to glucagon; MST
human glucagon receptor = human glucagon receptor (Homo sapiens, UniProt P47871); assay: cAMP-response element luciferase reporter in CHO-K1 cells expressing human GCGR-GFP; format: cell-based; conditions: CHO-K1 human GCGR cAMP reporter
Method: Bar graphs represent mean±standard deviation (s.d.), n=4-5 per group. *P<0.05, **P<0.01, ***P≤0.001, ****P≤0.0001, ns P>0.05. Multiple group comparisons were done using one-way ANOVA statistics with Tukey post-test correction. Graphs show data as mean±standard error of mean (s.e.m.), analyzed using two-way ANOVA.
During cloning hexahistadine and WELQ protease site was added for protein purification. Murine aP2 gene was cloned into pet21+ vector after the hexahistadine tag and TEV protease site for ease of purification.
Plasmids were transfected using Lipofectamine (Invitrogen) according to manufacturer's instructions. Transiently transfected cells were grown in appropriate selection antibiotics where applicable for stable cell line generation. Following three passages under selection media, single cell colonies were picked and expanded for experimentation after validation.

[1] = system: G6Pc and Pck1 expression in primary hepatocytes; assay: Gluconeogenic gene expression (G6Pc, Pck1) in primary hepatocytes; format: cell-based, mouse; conditions: glucagon 100 nM plus recombinant aP2, vs glucagon alone
GCGR-ecd = molecular target: T1, GCGR-ecd (Homo sapiens, UniProt P47871); assay: Biolayer interferometry: GCGR-ecd binding to biotin-glucagon with or without aP2; conditions: BLITZ biolayer interferometry
T1 construct: GCGR extracellular domain was cloned into pFastBac shuttle vector; hexahistidine; WELQ protease site; made in house; host or cells: baculovirus expression system (pFastBac)
T1 sequence (P47871 26-136 limits assumed): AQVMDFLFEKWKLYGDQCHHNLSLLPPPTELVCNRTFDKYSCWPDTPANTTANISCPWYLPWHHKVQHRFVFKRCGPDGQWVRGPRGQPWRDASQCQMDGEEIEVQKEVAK

aP2 deficient mice [2] = assay: Hyper-insulinemic-pancreatic clamp in aP2 deficient mice; format: in vivo, mouse; conditions: insulin 3 mU/kg/min, vs vehicle
Description: Multiple group comparisons under clamp conditions were done using one-way ANOVA statistics with Tukey post-test correction. Basal and clamp conditions between groups were compared using repeated measures two-way ANOVA with Sidak correction. Graphs show data as mean s.e.m.

aP2 knockout mice = assay: Glucagon response of aP2 knockout mice given aP2, with or without CA33 preincubation; format: in vivo, mouse; conditions: CA33 preincubated with aP2
Description: Mouse and rabbit-mouse hybrid monoclonal antibodies raised against the human and mouse aP2 peptides were produced and screened. […] The systemic improvement in glucose metabolism was further verified using a glucose tolerance test (GTT).

aP2 deficient mice [3] = assay: Glucagon injection test (glycaemia) in aP2 deficient mice; conditions: 4-hour food withdrawal
Description: Graphs show data as mean s.e.m. Experiments were repeated at least three times with similar results.
One-way ordinary ANOVA, with Tukey correction was used for multiple group comparisons. Experiments were repeated at least three times with similar results.

biotin-glucagon = biotin-glucagon (Homo sapiens, UniProt P01275); assay: Bio-Layer Interferometry: aP2 binding to biotin-glucagon; conditions: read-out: Kdapp aP2 / biotinylated glucagon; biolayer interferometry, 25° C., PBS
biotin-glucagon, sequence (P01275 53-81 limits assumed): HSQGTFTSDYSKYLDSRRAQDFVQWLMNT

[4] = system: HepG2-C3A human hepatoma cell line; assay: Glycogenolysis (14C-glucose release) in HepG2-C3A cells; format: cell-based; conditions: 24 hours stimulation, aP2 with glucagon
Description: (§1) Bar graphs represent mean±standard deviation (s.d.), n=4-5 per group. *P≤0.05, **P≤0.01, ***P≤0.001, ****P≤0.0001, ns P>0.05. Multiple group comparisons were done using one-way ANOVA statistics with Tukey post-test correction.

primary hepatocytes = assay: De-novo glucose production in primary hepatocytes; format: cell-based, mouse; conditions: 4 hours stimulation, aP2 with glucagon
Description: as §1

[5] = system: mice with diet induced obesity; assay: Glucagon challenge test in mice with diet induced obesity; format: in vivo, mouse; conditions: HFD 20 weeks; 33 mg/kg i.p. twice a week for 3 weeks; 150 μg/kg glucagon after 4-hour fast; vs vehicle
Method: Mice were fed high fat diet for 20 weeks prior to the experiment. Starting from the 20th week, mice were injected with vehicle or anti-aP2 mAb at a dose of 33 mg/kg injected i.p. twice a week for 3 weeks.

human glucagon receptor, sequence (P47871 26-477): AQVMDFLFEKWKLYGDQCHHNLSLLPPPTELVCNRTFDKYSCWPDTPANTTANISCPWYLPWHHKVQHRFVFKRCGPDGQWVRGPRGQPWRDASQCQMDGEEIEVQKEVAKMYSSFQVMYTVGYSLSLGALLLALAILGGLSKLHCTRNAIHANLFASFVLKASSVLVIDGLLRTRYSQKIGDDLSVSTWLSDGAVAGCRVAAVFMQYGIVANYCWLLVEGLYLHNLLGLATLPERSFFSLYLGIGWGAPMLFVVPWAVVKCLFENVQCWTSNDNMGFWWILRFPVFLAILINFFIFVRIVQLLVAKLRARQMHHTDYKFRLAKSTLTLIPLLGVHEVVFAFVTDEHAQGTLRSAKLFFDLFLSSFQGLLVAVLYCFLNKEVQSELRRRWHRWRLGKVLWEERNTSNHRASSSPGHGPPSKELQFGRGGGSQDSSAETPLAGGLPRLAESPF

- Kd (glucagon): ~214 nM
- Increase of glucagon potency by aP2 addition (human glucagon receptor): more than one order of magnitude
- Change of dissociation constant of glucagon to GCGR-ecd on addition of aP2 (GCGR-ecd): an order of magnitude decrease
- Kd (biotin-glucagon): 2340 nM
B1: aP2: adipocyte lipid binding protein (aP2), also known as fatty-acid binding protein 4 (FABP4), recombinant (protein)
chain: MCDAFVGTWKLVSSENFDDYMKEVGVGFATRKVAGMAKPNMIISVNGDLVTIRSESTFKNTEISFKLGVEFDEITADDRKVKSIITLDGGALVQVQKWDGKSTTIKRKRDGDKLVVECVMKGVTSTRVYERA
- Expression of gluconeogenic genes [1]: further increased
- Hepatic glucose production / counterregulatory response to insulin (aP2 deficient mice [2]): not seen
- Glucagon responsiveness of aP2 knockout mice (aP2 knockout mice): rescues glucagon unresponsiveness
- Glycaemia response (glucagon responsiveness) (aP2 deficient mice [3]): little to no-response
- Glycogenolysis [4]: increased
- Hepatic glucose production (primary hepatocytes): increased

B2: anti-aP2 mAb: anti-aP2 monoclonal antibody of Example 4, identity not stated (probably CA33) (antibody, V domains shown)
VH: QSVEESGGRLVTPGTPLTLTCTVSGFSLSTYYMSWVRQAPGKGLEWIGIIYPSGSTYCASWAKGRFTISKASTTVDLKITSPTTEDTATYFCARPDNDGTSGYLSGFGLWGQGTLVTVSS
VL: DVVMTQTPASVSEPVGGTVTIKCQASEDISRYLVWYQQKPGQPPKRLIYKASTLASGVPSRFKGSGSGTDFTLTISDLECDDAATYYCQCTYGTYAGSFFYSFGGGTEVVVE
- Response to glucagon injection (glucose levels) [5]: significantly lower response

— patent publication US20250346646A1, “COMPOUNDS USEFUL TO TREAT METABOLIC DISORDERS” (President and Fellows of Harvard College, priority 2016, published 2025)
